Experimental data: paper PMC10771500, “Ton motor conformational switch and peptidoglycan role in bacterial nutrient uptake” (Nature Communications, 2024)

B1: periplasmic domain of ExbD from Escherichia coli, residues 43-141 (ExbD^(Ec, peri)) (domain or fragment, UniProt P0ABV2 43-141, looked up)
chain: VDVKVNLPASTSTPQPRPEKPVYLSVKADNSMFIGNDPVTDETMITALNALTEGKKDTTIFFRADKTVDYETLMKVMDTLHQAGYLKIGLVGEETAKAK
notes: ExbD of Escherichia coli, periplasmic domain, residues 43-141; not shown: His-tag, N-terminal, cleaved
B5: ExbD construct from E. coli lacking the N-terminal residues 43-60 (ExbD^(Ec, ΔNIBS)) (domain or fragment, Escherichia coli, UniProt P0ABV2 61-141, looked up)
chain: EKPVYLSVKADNSMFIGNDPVTDETMITALNALTEGKKDTTIFFRADKTVDYETLMKVMDTLHQAGYLKIGLVGEETAKAK
notes: ExbD of Escherichia coli, periplasmic domain (43-141) lacking the N-terminal residues 43-60; the limits 61-141 are worked out from these two statements; not shown: His-tag, N-terminal, cleaved

Key:
[1] = molecular target: the molecule itself; assay: AUC; sedimentation velocity, 100 μM ExbD^(Ec, peri) with 300 μM TonB peptide, 42000 rpm overnight, 50 mM sodium phosphate, 50 mM NaCl, pH 7.0
[2] = molecular target: T1, periplasmic part of TonB from Escherichia coli, residues 34-239 (TonB^(Ec, peri)) (Escherichia coli, UniProt P02929 34-239); assay: NMR titration; 2D [1H-15N]-TROSY spectra of 15N-labeled HasB^(Sm, peri) or TonB^(Ec, peri) alone and upon addition of the unlabeled ExbD periplasmic domain; 293 K; details: both partners purified
T1 construct: TonB of Escherichia coli, residues 34-239; 15N-labelled in the NMR experiment; not shown: His-tag, N-terminal, cleaved
T1 sequence (P02929 34-239): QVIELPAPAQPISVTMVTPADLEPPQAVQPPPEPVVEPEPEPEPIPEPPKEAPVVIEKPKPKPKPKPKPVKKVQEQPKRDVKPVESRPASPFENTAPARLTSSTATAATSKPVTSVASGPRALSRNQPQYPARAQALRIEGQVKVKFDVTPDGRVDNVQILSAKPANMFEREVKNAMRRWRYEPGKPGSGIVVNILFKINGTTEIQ

[3] = molecular target: the molecule itself; assay: NMR spectra of a disulfide-bridged mutant; NMR fingerprint spectra of the V47C mutants compared with the wild type (Supplementary Fig. 7)
[4] = molecular target: the molecule itself; assay: AUC; sedimentation velocity, 100 μM ExbD alone, 42000 rpm overnight, 50 mM sodium phosphate, 50 mM NaCl, pH 7.0; c(S) model in SEDFIT
[5] = molecular target: T2, periplasmic part of HasB from Serratia marcescens, residues 37-263 (HasB^(Sm, peri)) (Serratia marcescens, UniProt Q79AD1 37-263); assay: NMR titration; 2D [1H-15N]-TROSY spectra of 15N-labeled HasB^(Sm, peri) or TonB^(Ec, peri) alone and upon addition of the unlabeled ExbD periplasmic domain; 293 K; details: both partners purified
T2 construct: HasB, the TonB paralog of the Heme Acquisition System of Serratia marcescens, residues 37-263; 15N-labelled in the NMR experiment; also called HasB_(37-263, Sm); source: bacterial expression (20 h at 30 °C), purified (cation exchange, SEC)
T2 sequence (looked up): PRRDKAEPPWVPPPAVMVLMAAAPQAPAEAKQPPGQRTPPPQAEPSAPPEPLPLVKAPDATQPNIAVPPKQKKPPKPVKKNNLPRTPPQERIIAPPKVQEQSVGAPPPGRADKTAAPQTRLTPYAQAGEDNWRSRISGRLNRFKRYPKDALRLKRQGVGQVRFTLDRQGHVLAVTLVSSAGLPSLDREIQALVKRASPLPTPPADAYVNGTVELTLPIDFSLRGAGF

[6] = molecular target: B5; assay: crystal structure; 2 mM ExbD^(Ec, ΔNIBS) with 10 mM TonB peptide in 50 mM Tris-HCl, 50 mM NaCl, pH 7.0; crystals in 10% w/v glycerol and 3 M ammonium sulfate, 18 °C; 1.5 Å; details: both partners purified
[7] = molecular target: B1; assay: NMR titration; 2D [1H-15N]-HMQC spectra of 15N-labeled ExbD periplasmic domain with and without the HasB or TonB peptide; 293 K; details: both partners purified
[8] = molecular target: the molecule itself; assay: crystal structure; 2 mM ExbD^(Ec, ΔNIBS) with 10 mM TonB peptide in 50 mM Tris-HCl, 50 mM NaCl, pH 7.0; crystals in 10% w/v glycerol and 3 M ammonium sulfate, 18 °C; 1.5 Å

B1
stoichiometry N [1]: 2 | binding result [2]: binds

B2: ExbD^(Ec, peri) V47C (domain or fragment, Escherichia coli, UniProt P0ABV2 43-141, looked up)
chain: VDVKCNLPASTSTPQPRPEKPVYLSVKADNSMFIGNDPVTDETMITALNALTEGKKDTTIFFRADKTVDYETLMKVMDTLHQAGYLKIGLVGEETAKAK
modifications: disulfide bridge between the Cys 47 of the two subunits
notes: ExbD of Escherichia coli, periplasmic domain, residues 43-141, with V47C; not shown: His-tag, N-terminal, cleaved
binding result [3]: binds

B3: periplasmic domain of ExbD from Serratia marcescens, residues 43-140 (ExbD^(Sm, peri)) (domain or fragment, UniProt V5YUQ0 43-140, looked up)
chain: VDIRVDLPASSAKPQPRPEKPVFLSVKADKQLYVGDQPVNADQLTSVLDQRTQANKETTIFFQADKSVDYETLMSVMDTLRKAGYLKVGLVGMEGAAK
notes: ExbD of Serratia marcescens (Has system), periplasmic domain, residues 43-140; 15N- or 13C,15N-labelled in the NMR samples; also called ExbD^(Sm, peri) wild type (wt); not shown: His-tag, N-terminal, cleaved
stoichiometry N [4]: 2 | binding result [5]: binds

B4: ExbD^(Sm, peri) V47C (domain or fragment)
chain: VDIRCDLPASSAKPQPRPEKPVFLSVKADKQLYVGDQPVNADQLTSVLDQRTQANKETTIFFQADKSVDYETLMSVMDTLRKAGYLKVGLVGMEGAAK
modifications: disulfide bridge between the Cys 47 of the two subunits
notes: ExbD of Serratia marcescens, periplasmic domain, residues 43-140, with V47C; also called disulfide-bridged ExbD^(Sm, peri) V47C mutant; not shown: His-tag, N-terminal, cleaved
binding result [3]: binds

KKAQPISVTMVTPADLEPPQAKK (Probably a synthetic peptide) [TonB peptide (KKAQPISVTMVTPADLEPPQAKK)]
binding result [6]: binds | binding result [7]: binds

B5
binding result [8]: binds
